Our source for the protein production values is a protein production outcome set (Wang et al. 2014).

A short description of the series: label from the status in PepcDB records.
As for “VTATETVRVRFCPSPTGTPHVGLVRTALFNWAYARHTGGTFVFRIEDTDAQRDSEESYLALLDALRWLGLDWDEGPEVGGPYGPYRQSQRAEIYRDVLARLLAAGEAYHAFSTPEEVEARHVAAGRNPKLGYDNFDRHLTDAQRAAYLAEGRQPVVRLRMPDDDLAWNDLVRGPVTFAAGSVPDFALTRASGDPLYTLVNPCDDALMKITHVLRGEDLLPSTPRQLALHQALIRIGVAERIPKFAHLPTVLGEGTKKLSKRDPQSNLFAHRDRGFIPEGLLNYLALLGWSIADDHDLFGLDEMVAAFDVADVNSSPARFDQKKADALNAEHIRMLDVGDFTVRLRDHLDTHGHHIALDEAAFAAAAELVQTRIVVLGDAWELLKFFNDDQYVIDPKAAAKELGPDGAAVLDAALAALTSVTDWTAPLIEAALKDALIEGLALKPRKAFSPIRVAATGTTVSPPLFESLELLGRDRSMQRLRAARQLVGHA”, the protein production entry was “not failed”.
The result for “MDLDLRKLRYFVAVADRLHFGRAADALHIAQPALSRQIRALEQDLGASLFTRDSHGVTLTDAGRQLLDDAGPLLASAHAVRRRVSVAERGGRRLVVGFRAGIPVIPATRVFEAQHPDVVVDVQRMEWDDQASMLLDGRVDVAYVRLPLAETGLRLAPLYTEPLMVALPAGHRLAGKDEVTEADLAGEPLIWHADASRQPTRRPHPDSGLRVRGVEEKLEHVAAGRGISFVGRSEAVFFSRPDISYVPVPDLAPDQVCVAMAASRTSPLADSFFAAAQTTAEITAECGNYEMWRLASDAASKRD” reads “failed”; that for “MLQCGAKNVNPLERFVSSLPVAAVLPELLAALDGASQVLLSAPTGAGKSTWLPLQLLAHPGINGKIILLEPRRLAARNVAQRLAELLNEKPGDTVGYRMRAQNCVGPNTRLEVITEGVLTRMIQRDPELSGVGLVILDEFHERSLQADLALALLLDVQQGLRDDLKLLIMSA”, “failed”; that for “MAQTQTFRRTCFLLAIFILISVSGIGTASEFRVWPGQSIQDAVDSASPGDIILVESGEFNESIRVNKENLTIESASGNPDDIFIAGDTPISYVFEVVANDVKINFFSITDGRCGIFLNNVENCVINGNKISNQEAGIYLLNSRNNLLTNNMVYSNEDCGLKLLASSENIIYGNYFDNVENARDNRFNVWNNSKGNYWSDYGGTDENGDGIGDTPYAINPEVGSMDYRPLIEYSQEAPILPKALFTSDVTEGYAPLVVRFKDFSEDAASRLWDFGDGNFSSYPNPQHTYLNEGTYVVSLTVSNENGSDSASVTVYVRDASELAGPMLPKAQFIYNTTSGHIPLVIKFVDISENADCVTWYFGDGKTSCCPEPEHTFCCPGSYTVSLAAINENGTSSASIVVNVLPAESVESSEDTENSANTGSGSDKNNACNIVNETDADASEKAGDPELITRSENTDSLGNSIIEYASDTTDKFADAENSINAEATENSESDSNGGGEGTGTARIIHREELEAIKDSVISTASSNILKETERALENETLKVQKNVEDFVDDSLPESVGDSLPEMEQRIAPWIPSFLGLAGVIFIVSVMKRGRRRRQK”, “failed”.
The result for “MKKRILSAVLVSGVTLGTAAVTVNADDFDSKIAATDSVINTLSGQQAAAQNQVTAIKGQVGALESQQSELEAQNAQLEAVSQQLGQEIQTLSNKIVARNESLKKQVRSAQKGNLTNYINTILNSKSVSDAVNRVVAIREVVSANEKMLAQQEADKAALEAKQIENQNAINTVAANKQAIENNKAALATQRAQLEAAQLELSAQLTTVQNEKASLIQAKAQAEEAARKAAEAQAAAEAKAQAEAKAQAESVAKAQAAAQVESATAPTETVQTQPRTEIKPSNLTATSSATTVATTTATATNEPKVTQPSVVTKAVEAPKAVVSSTPRAVSKPVVRSYDSSNTYPMGQCTWGAKSMASWVGNYWGNANQWGASARAAGYSVGTTPRVGAVAVWPYDGGGYGHVAVVTSVANNSSIQVMESNYAGNMSIGNYRGSFNPSASGSVYYIYPN” reads “failed”; that for “MAKVNITRDLIRRQIKERGALSFERRYHVTDPFIRRLGLEAELQGHSGCVNCLEWNEKGDLLASGSDDQHTIVWDPLHHKKLLSMHTGHTANIFSVKFLPHAGDRILITGAADSKVHVHDLTVKETIHMFGDHTNRVKRIATAPMWPNTFWSAAEDGLIRQYDLRENSKHSEVLIDLTEYCGQLVEAKCLTVNPQDNNCLAVGASGPFVRLYDIRMIHNHRKSMKQSPSAGVHTFCDRQKPLPDGAAQYYVAGHLPVKLPDYNNRLRVLVATYVTFSPNGTELLVNMGGEQVYLFDLTYKQRPYTFLLPRKCHSSGEVQNGKMSTNGVSNGVSNGLHLHSNGFRLPESRGHVSPQVELPPYLERVKQQANEAFACQQWTQAIQLYSKAVQRAPHNAMLYGNRAAAYMKRKWDGDHYDALRDCLKAISLNPCHLKAHFRLARCLFELKYVAEALECLDDFKGKFPEQAHSSACDALGRDITAALFSKNDGEEKKGPGGGAPVRLRSTSRKDSISEDEMVLRERSYDYQFRYCGHCNTTTDIKEANFFGSNAQYIVSGSDDGSFFIWEKETTNLVRVLQGDESIVNCLQPHPSYCFLATSGIDPVVRLWNPRPESEDLTGRVVEDMEGASQANQRRMNADPLEVMLLNMGYRITGLSSGGAGASDDEDSSEGQVQCRPS”, “failed”.
With “MRGPAEQPPVTAISADATDADAAWRIMEQTRPDVVIMNAGAEPPMERIDRIGWEAFTTNWNVDVKAALHWVQAALTVPMAPGGLVVLISSGAAVQGSPLSGGYAGAKRAQWFIAKYADGLSAELGLGLRFRVLVPRQMFVGTGVGDTGIGAYAAKAGRTFAEQAATWPNMTPRAFGDTVAELIGKSGLAEAMVYAVRGDTGVTVIE”, the protein production entry is on record as “failed”.
As for “MGHHHHHHSHEELPPTTELEEGLRNGVYLAKLAKFFAPKMVSEKKIYDVEQTRYKKSGLHFRHTDNTVQWLRAMESIGLPKIFYPETTDVYDRKNIPRMIYCIHALSLYLFKLGIAPQIQDLLGKVDFTEEEISNMRKELEKYGIQMPSFSKIGGILANELS”, the protein production result is “failed”.
The result for “MWKCHRYMMSSHLHRQLDLINMEIKTIASGSKGNAYVISSGRSQLLIECGVNFDKIRKALNFDLSAVEACLISHEHGDHVAGVKKMLRTSSIKIYASEGTLSALNVPDSRQFILKEKDAQNIGEWIILPFQTEHDAKEPLGFMIQRHNERLLFITDSYFVRYKFKNINYLMIECNYSADILEENVINKVIHQVQKKRVLQSHFSLENVKEFLNANDLSQLREIHLLHISERNGDPERFKKEIQAMTGVPVYV” reads “failed”; that for “MSLKDVSLSSFDAHDLDLDKFPEVVRDRLTQFLDAQELTIADIGAPVTDAVAHLRSFVLNGGKRIRPLYAWAGFLAAQGHKNSSEKLESVLDAAASLEFIQACALIHDDIIDSSDTRRGAPTVHRAVEADHRANNFEGDPEHFGVSVSILAGDMALVWAEDMLQDSGLSAEALARTRDAWRGMRTEVIGGQLLDIYLESHANESVELADSVNRFKTAAYTIARPLHLGASIAGGSPQLIDALLHYGHDIGIAFQLRDDLLGVFGDPAITGKPAGDDIREGKRTVLLALALQRADKQSPEAATAIRAGVGKVTSPEDIAVITEHIRATGAEEEVEQRISQLTESGLAHLDDVDIPDEVRAQLRALAIRSTERREGHHHHHH”, “not failed”; that for “MSRRRMSESLPPGVQVDPAAIEQLVGRPVDDLSHYRRALTHRSLLRVHPARTFRSNERLEFLGDALLDVFVGEVLYDRFPEKDEGALTRLRARLVSERPLATYARGLGLGPHLLMSENAAEGDGRDNPSILADAFEAFVGAVYLDLGHEAARGFVQDRVLAPVDLEDVATRDDNYKSQLLEHLQALGRPQPTYHVVEEKGPSHDKTFTVEVRVGDAAYERGTAGSKQDAEQQAARRTLDEMASDPPAS”, “failed”.
To “MVLMRYVGKRDLFTVGKYLGTIMQGVGFVVALPVFVAIIYGEGNLQSFIIPAFISLGAGTVLKRYLPEECSVRLKHGMMVACLAWLWAGLIGSLIMISALNIDFTNAFFENMSAWTGSGLTIFSSVESLPKSILFLRSLEQWIGGLGVVIVVIGILIRPGTAASRLYKSEARDERIKPSIANTVKTIWWIYITYTVLGIVLYGLTGMPLFDAINNTLTNLSTGGMSIKNMNIGYYHSAAVYLVTMLLMILGGTSFLVHYQLIKGRFFSVLHDIQLQATVVFISIFTILAVYVGGVAPLESIYHVISALSCTGSSISSTPQMVAWPAYFKVLLITCMLIGMAAGSTTGAVKIIRVITVLKGVYWEIMRILAPEGSVMPRKISGKSVSDTEIREAGSYISLYFVLLFFTWSVLVVYGYDPLNSLFEAASAQGNVGLSMGITSFNLPVVPKMALILSMWLGRLEIIPVIVLIRGLVEAFKAG” belongs “failed”.
With “MFLVNNIRCSNMAEFPYTTVPGKIKPFFQKIQEAGLPSKVTQKWINSIGFTSSNDPSIIPLLKKLGFIDRSGVPTELWARYRDKDLAPKVMAEAIKNAYKELFETYPDAYRKDKEALRNFFASQTGKAENTIEKMIQTFKALCELADFESNSEEYPHNEVVPSREGLTTLMEKQTPKGLTINVNIQLQLPATTDEEVYDKLFRSLKRNLLSE”, the protein production entry is listed as “not failed”.
The result for “MSKAKAPINTDELKQKYGRVYEIRIEGLEYENGEEAEFVFYFTRPKVSDISRFTKELNSKPDMAMKNLTFSCIVPEQEEELRQAAEEFPGLTFNTASRLMEIVGASAATSLKKL” reads “not failed”; that for “VTDVLLCVGNSMMGDDGAGPLLAEKCAAAPKGNWVVIDGGSAPENDIVAIRELRPTRLLIVDATDMGLNPGEIRIIDPDDIAEMFMMTTHNMPLNYLIDQLKEDIGEVIFLGIQPDIVGFYYPMTQPIKDAVETVYQRLEGWEGNGGFAQLAVEEE”, “not failed”.
Take “MSYEDWAGGIRCSECGREYTGIECPICRQADPTEREVVTEHGNGRGDQQPPENGTVSADSGVYDIDKIEHERHTDAEKVNPEVVDPSDYVTRAVSGVVFNKRHAWKAENRADEDNPPSLFVVTTADSEFNWIEIPLWDDAEGAMEDISIGDPIQAEGKLSKDNGVHNIHVHSQDSIDILTEPPEVKFDSMAIDQITSTTPKVDLEGTVERVGEIKDIQLDDEKVKLREIHVSDLNNDQIQVALWRTNAYEKVAPGDEIIIAGGLAKPHNEKVVVRVGWSGHIGYRSSLEHHHHHH”: the protein production entry is reported as “failed”.
With “MASRGRRPEHGGPPELFYDETEARKYVRNSRMIDIQTRMAGRALELLYLPENKPCYLLDIGCGTGLSGSYLSDEGHYWVGLDISPAMLDEAVDREIEGDLLLGDMGQGIPFKPGTFDGCISISAVQWLCNANKKSENPAKRLYCFFASLFSVLVRGSRAVLQLYPENSEQLELITTQATKAGFSGGMVVDYPNSAKAKKFYLCLFSGPSTFIPEGLSENQDEVEPRESVFTNERFPLRMSRRGMVRKSRAWVLEKKERHRRQGREVRPDTQYTGRKRKPRF”, the protein production entry is listed as “failed”.
To “MAANNRSDHGSDENTRLYNPYQNYEVPINKSQYLYKLPTSPEFLFTEEALRQRRSWGENLTFYTGTAYLGGSVAGASVGVITGVKSFESGDTTKLKINRILNSSGQTGRTWGNRIGIIGLVYAGIESGIVAATDRDDVWTSVVAGLGTGAVCRAARGVRSAAVAGALGGLAAGAVVAGKQIVKRYVPI” belongs “failed”; to “MQFNPTLDSIKTYEAGKPIELVVREYGIKPQNVIKLASNENPFGASPKVIEAIAKEAVNAHRYPDDSMFELKEGLAGRFGVKSENVIIGSGSDQILEMAVHAKCNASSKVLMSKTTFAMYDVYSRQVGARILRTPSDQHHLGEFWEIYQKERPEILFLCLPNNPLGECLDREEVYDFLQKIDDETLVIVDGAYQEYAAFKDSQKRIDPKDLIERFPSSIFLGTFSKAFGLGGMRVGYGIAQPSIIQALMKMRAPFNITTLSLKAAIEALKESAYVEETIKENFKEMRRYEEFALAQGIDFIPSYTNFITLLLKNRVDSSEFSQWLLERGLIVRNLKSYGINAIRITIGRSLENDRCFELMQEYLHQF”, “failed”.
